Consider 3 molecules from paper PMC5499551.

Like-named read-outs stand apart in the source and are kept apart here.

What all share (assay): EMSA
In data set [1] the target is T1, SOX9 (UniProt P48436 1-509).
In a further data set the target is GATA4 (mouse, UniProt Q08369 1-441).
The target in another data set is DMRT1 (mouse, UniProt Q9QZ59 1-374).
Data set [2] deals with T1, SOX9. The source holds these as a separate data set.

Sequence of GATA4 (Q08369 whole entry): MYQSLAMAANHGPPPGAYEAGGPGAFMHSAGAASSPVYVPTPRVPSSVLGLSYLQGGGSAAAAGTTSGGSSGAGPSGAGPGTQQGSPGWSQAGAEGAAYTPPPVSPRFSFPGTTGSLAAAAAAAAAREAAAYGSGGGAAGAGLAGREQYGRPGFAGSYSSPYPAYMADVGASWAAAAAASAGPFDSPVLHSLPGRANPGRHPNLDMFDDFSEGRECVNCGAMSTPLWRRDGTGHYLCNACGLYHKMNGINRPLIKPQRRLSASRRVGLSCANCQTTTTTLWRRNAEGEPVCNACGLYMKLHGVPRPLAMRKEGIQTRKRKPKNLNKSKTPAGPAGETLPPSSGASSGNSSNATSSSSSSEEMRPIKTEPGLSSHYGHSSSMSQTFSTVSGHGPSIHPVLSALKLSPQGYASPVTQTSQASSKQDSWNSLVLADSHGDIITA
T1 sequence (P48436 whole entry): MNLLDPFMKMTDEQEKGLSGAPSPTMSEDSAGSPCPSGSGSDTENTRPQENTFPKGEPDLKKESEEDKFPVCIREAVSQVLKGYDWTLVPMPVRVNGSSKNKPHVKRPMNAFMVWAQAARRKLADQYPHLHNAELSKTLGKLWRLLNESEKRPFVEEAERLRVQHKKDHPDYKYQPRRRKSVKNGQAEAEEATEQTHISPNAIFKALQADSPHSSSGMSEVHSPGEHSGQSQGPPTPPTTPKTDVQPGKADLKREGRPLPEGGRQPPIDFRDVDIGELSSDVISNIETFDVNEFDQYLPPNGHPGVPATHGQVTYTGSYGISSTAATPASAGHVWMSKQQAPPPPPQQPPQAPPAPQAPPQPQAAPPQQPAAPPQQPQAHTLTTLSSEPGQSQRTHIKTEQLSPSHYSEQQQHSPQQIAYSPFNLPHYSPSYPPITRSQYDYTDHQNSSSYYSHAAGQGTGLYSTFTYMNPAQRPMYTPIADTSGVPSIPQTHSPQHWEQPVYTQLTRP
Sequence of DMRT1 (Q9QZ59 whole entry): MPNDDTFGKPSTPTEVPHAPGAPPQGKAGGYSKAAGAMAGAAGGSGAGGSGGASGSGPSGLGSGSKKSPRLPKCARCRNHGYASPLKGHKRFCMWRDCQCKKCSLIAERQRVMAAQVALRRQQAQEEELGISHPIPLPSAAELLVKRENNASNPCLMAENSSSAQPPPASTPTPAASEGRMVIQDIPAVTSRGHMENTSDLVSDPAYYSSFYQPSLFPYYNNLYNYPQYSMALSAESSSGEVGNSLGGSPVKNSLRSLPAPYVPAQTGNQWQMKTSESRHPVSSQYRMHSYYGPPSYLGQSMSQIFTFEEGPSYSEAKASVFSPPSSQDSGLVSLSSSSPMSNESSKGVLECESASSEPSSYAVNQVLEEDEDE

B1: Mrpl45 (dsDNA)
DNA 1: GGGTTTTTTTCACCGATTGTAAATAAGGTGTAACAATGTGTTAAGGAACCAGGA
DNA 2: TCCTGGTTCCTTAACACATTGTTACACCTTATTTACAATCGGTGAAAAAAACCC
With B1, the binding result in the data set with SOX9 [1], with GATA4 and in the data set with DMRT1 was “binds” each time.

B2: Lats2 (dsDNA)
DNA 1: GGCCGAGCGGGACATTCGCTACATTGTTGGCATTCCACGGGCG
DNA 2: CGCCCGTGGAATGCCAACAATGTAGCGAATGTCCCGCTCGGCC
Regarding B2, the binding result with GATA4 is reported as “no binding”; with DMRT1, “binds”; in the data set with SOX9 [2] it was “binds”.

B3: Lmo4 (dsDNA)
DNA 1: GGCATCTCCCATTATTGTTCCAAATCTCATTTCATTTTGAA
DNA 2: TTCAAAATGAAATGAGATTTGGAACAATAATGGGAGATGCC
In the case of B3, the binding result is “binds” with SOX9 [1], “binds” with GATA4 and “no binding” in the data set with DMRT1.
